{"source": "paper PMC5234717", "about": "(Journal of Lipid Research, 2016)", "key": {"[1]": {"target": "T1, S1PL2025 (Burkholderia pseudomallei, UniProt Q63IP4)", "T1 construct": "gene BPSS2025", "T1 sequence (Q63IP4 35-507 limits assumed)": "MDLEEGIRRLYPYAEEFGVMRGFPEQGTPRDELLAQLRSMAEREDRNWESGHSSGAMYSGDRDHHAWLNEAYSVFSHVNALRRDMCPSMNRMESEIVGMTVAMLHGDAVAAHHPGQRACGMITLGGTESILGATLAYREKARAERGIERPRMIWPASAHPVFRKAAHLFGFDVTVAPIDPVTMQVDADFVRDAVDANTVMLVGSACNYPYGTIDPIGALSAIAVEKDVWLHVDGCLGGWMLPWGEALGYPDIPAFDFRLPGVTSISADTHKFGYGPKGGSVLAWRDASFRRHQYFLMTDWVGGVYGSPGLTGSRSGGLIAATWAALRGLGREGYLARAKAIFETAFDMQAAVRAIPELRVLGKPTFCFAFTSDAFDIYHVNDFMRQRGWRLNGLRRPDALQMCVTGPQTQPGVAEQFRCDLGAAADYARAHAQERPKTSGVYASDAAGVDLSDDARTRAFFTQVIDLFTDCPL"}, "[2]": {"system": "CCCCCCCCCCCCC/C=C/C=O", "experiment": "purified protein", "details": "pH 7.5; 37.0 °C"}, "[3]": {"target": "T1, S1PL2025", "remark": "listed apart in the source"}}, "data": [{"compound": "NCCOP(=O)(O)O", "note": "[PE]", "values": [{"measurement": "UV-vis spectroscopy of PLP", "setting": "[1]", "result": "UV-vis analysis of the binding of S1P and PE to the S1PL2025 enzyme"}]}, {"compound": "FALDH (Homo sapiens)", "values": [{"measurement": "Km", "setting": "[2]", "result": "19.4 ± 3.2", "unit": "µM"}, {"measurement": "Vmax", "setting": "[2]", "result": 0.315, "unit": "µmol/min/mg"}, {"measurement": "kcat/Km", "setting": "[2]", "result": 11300, "unit": "M⁻¹ s⁻¹"}]}, {"compound": "Cc1ncc(COP(=O)(O)O)c(C=O)c1O", "note": "[PLP]", "values": [{"measurement": "UV-vis spectroscopy", "setting": "[3]", "result": "A similar PLP binding spectrum was observed with S1PL2025"}]}]}
